Assay results: paper doi:10.1101/2021.02.22.432209 (bioRxiv, 2021)
Read-outs that look alike come from different tables or passages of the source.

B1: GST-PreScission-p62 FIR 4P (domain or fragment)
chain: MESDNCSGGDDDWTHLSSKEVDPETGELQSLQMPESEGPEELDPEQEGPTGLKEA
B2: GABARAP (1-117), His8-TEV-GABARAP (natural protein)
chain: MKFVYKEEHPFEKRRSEGEKIRKKYPDRVPVIVEKAPKARIGDLDKKKYLVPSDLTVGQFYFLIRKRIHLRAEDALFFFVNNVIPPTSATMGQLYQEHHEEDFFLYIAYSDESVYGL

Columns and labels:
Assay in all cases: SPR
[1] = biological target: B2
[2] = biological target: B2; remark: listed apart in the source
[3] = biological target: LC3B (1-125), His8-TEV-LC3B (human, UniProt Q9GZQ8 1-120)
[4] = biological target: T1, Biotinylated FLCN-8xGlycine-AviTag/FNIP2 (human, UniProt Q8NFG4;Q9P278, biotin on the AviTag)
[5] = biological target: T1, Biotinylated FLCN-8xGlycine-AviTag/FNIP2; remark: listed apart in the source

With GSKIITALEKGEVEESEYVVITVRNEP [FNIP2 peptide 550-576, wild type (Long)] the Kd [1] was 29 ± 2 nM.

EKGEVEESEYVVITVRNEP [FNIP2 peptide 558-576, wild type (Short)] was tested, and the Kd [1] was 6200 ± 3000 nM.

Binder B1 has a Kd [2] of 670 ± 80 nM and a Kd [3] of 820 ± 40 nM.

B2 was tested, and the Kd [4] was 0.071 ± 0.01 nM and the Kd [5] was 0.3 ± 0.018 nM.
